15 molecules from patent US20240141060A1 (Novartis, published 2024) can be followed below.

For orientation: Kd means a measure of binding affinity in units of concentration.

Residue numbers refer to the chain shown, from its start.

Assay [1] deals with T1, Recombinant Human 5′-Nucleotidase/CD73 Protein, CF (R&D Systems Cat: 5795-EN) (human, UniProt P21589 27-547).
T1 construct: Bought protein; also called Human CD73-His; recombinant human CD73; not shown: His tag
T1 sequence (looked up): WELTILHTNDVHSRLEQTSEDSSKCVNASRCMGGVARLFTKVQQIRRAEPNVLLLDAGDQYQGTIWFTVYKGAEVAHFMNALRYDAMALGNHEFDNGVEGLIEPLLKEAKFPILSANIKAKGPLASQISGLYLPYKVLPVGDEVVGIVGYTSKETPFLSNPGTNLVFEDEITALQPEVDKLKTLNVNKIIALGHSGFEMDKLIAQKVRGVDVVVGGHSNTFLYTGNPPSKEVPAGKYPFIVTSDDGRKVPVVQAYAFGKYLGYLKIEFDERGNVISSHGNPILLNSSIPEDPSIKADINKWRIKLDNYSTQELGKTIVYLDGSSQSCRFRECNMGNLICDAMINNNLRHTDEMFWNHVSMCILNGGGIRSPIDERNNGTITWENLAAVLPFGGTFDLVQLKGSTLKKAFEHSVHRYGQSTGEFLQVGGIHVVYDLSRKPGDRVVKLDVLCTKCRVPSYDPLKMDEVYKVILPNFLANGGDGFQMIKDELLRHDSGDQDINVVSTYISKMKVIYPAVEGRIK
In words: ForteBio Octet RED384 (BLI), whole IgG on AHQ sensors, 100 nM antigen, 1:1 model. As to the method: (§1) Briefly, ForteBio affinity measurements were performed by loading IgGs on-line onto AHQ sensors. Sensors were equilibrated off-line in assay buffer for 30 min and then monitored on-line for 60 seconds for baseline establishment. Sensors with loaded IgGs were exposed to 100 nM antigen for 3 minutes, and afterwards were transferred to assay buffer for 3 min for off-rate measurement. All kinetics were analyzed using the 1:1 binding model. Antigens used were: [0438] Human CD73-His: Recombinant Human 5′-Nucleotidase/CD73 Protein, CF from R&D Systems Cat: 5795-EN [0439] Mouse CD73-His: Recombinant Mouse 5′-Nucleotidase/CD73 Protein, CF from R&D Systems Cat: 4488-EN [0440] Cynomolgus CD73-His: Cynomolgus CD73/NT5E Protein (His Tag) from Sino Biological Cat: 90192-C08H-50

Assay [2] addresses T2, Recombinant Mouse 5′-Nucleotidase/CD73 Protein, CF (R&D Systems Cat: 4488-EN) (mouse, UniProt Q61503 29-549, limits assumed).
T2 construct: Bought protein; also called Mouse CD73-His; recombinant mouse CD73; not shown: His tag
T2 sequence (looked up): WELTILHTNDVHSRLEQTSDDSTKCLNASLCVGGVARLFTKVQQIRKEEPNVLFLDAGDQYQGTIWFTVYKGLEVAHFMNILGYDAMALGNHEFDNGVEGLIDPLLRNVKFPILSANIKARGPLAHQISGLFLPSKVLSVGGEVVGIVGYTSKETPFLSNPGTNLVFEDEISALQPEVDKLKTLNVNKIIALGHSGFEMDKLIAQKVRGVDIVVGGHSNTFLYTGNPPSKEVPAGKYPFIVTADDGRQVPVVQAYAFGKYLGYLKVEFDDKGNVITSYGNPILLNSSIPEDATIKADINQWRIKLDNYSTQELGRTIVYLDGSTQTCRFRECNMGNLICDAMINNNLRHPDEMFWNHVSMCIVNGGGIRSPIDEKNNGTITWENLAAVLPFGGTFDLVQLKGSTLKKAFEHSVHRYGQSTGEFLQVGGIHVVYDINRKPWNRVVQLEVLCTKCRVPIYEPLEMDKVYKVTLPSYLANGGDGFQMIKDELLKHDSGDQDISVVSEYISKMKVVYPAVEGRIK
The assay is described as above. How it is done: as §1

Assay [3] concerns the target T3, Cynomolgus CD73/NT5E Protein (His Tag) (Sino Biological Cat: 90192-C08H-50) (cynomolgus monkey, UniProt A0A2K5V5U7 27-547).
T3 construct: treated as one protein; also called Cynomolgus CD73-His; recombinant cynomolgus monkey CD73; not shown: His tag
T3 sequence: T1 sequence (looked up) with M199T, T350A, V466I
The assay is described as above. As to the method: as §1

For assay [4], the target named is T1, Recombinant Human 5′-Nucleotidase/CD73 …. The experiment in a line: ForteBio Octet RED384 (BLI), whole IgG on AHQ sensors, 100 nM antigen, 1:1 model; * value approaching upper limit for Kd measurement. As to the method: as §1
For assay [5], the target named is T2, Recombinant Mouse 5′-Nucleotidase/CD73 …. In words: ForteBio Octet RED384 (BLI), whole IgG on AHQ sensors, 1:1 model. How it is done:
as §1

Assay [6] shares this target. The experiment in a line: restated binding profile (Octet).

B1: 358.C (antibody, V domains shown)
VH: QVQLQESGPGLVKPSETLSLTCTVSGGSISGRYWSWIRQPPGKGLEWIGYIYGTGSTNYNPSLKSRVTISVDTSKNQFSLKLSSVTAADTAVYYCARESQESPYNNWFDPWGQGTLVTVSS
VL: DIQMTQSPSSVSASVGDRVTITCRASQGISSWLAWYQQKPGKAPKLLIYAASSLQSGVPSRFSGSGSGTDFTLTISSLQPEDFATYYCQQGNSFPRTFGGGTKVEIK
On to B1, for which the Kd in assay [1] came out at 317 pM; in assay [2] it was 3510 pM; in assay [3], 814 pM.

B2: 356.C (antibody, V domains shown)
VH: B1 VH with S30E, T54S, N58K
VL: B1 VL
In the case of B2, the Kd in assay [2] was 401 pM; in assay [3] it was 693 pM; in assay [4], 243 pM.

B3: 918.C (antibody, V domains shown)
VH: B1 VH with G31S, R32Y, G53S, T54S
VL: B1 VL
Turning to B3, the Kd in assay [1] amounted to 1530 pM; in assay [2] it was 8880 pM.

B4: 930.C (antibody, V domains shown)
VH: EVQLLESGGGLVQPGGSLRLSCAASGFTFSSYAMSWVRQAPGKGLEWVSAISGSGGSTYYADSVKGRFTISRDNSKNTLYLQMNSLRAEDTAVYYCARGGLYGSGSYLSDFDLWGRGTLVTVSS
VL: EIVLTQSPATLSVSPGERATLSCRASQSVGSNLAWYQQKPGQAPRLLIYGASTRATGIPARFSGSGSGTEFTLTISSLQSEDFAVYYCQQHNAFPYTFGGGTKVEIK
notes: also called 930 IgG1 format
As to B4, in assay [1], the Kd worked out at 1830 pM. In addition, the binding result in assay [5] is recorded as “no binding (tested: 100 nM antigen)”.

B5: 379.C (antibody, V domains shown)
VH: EVQLLESGGGLVQPGGSLRLSCAASGFTFSRYAMSWVRQAPGKGLEWVSSISGTGGSTYYADSVKGRFTISRDNSKNTLYLQMNSLRAEDTAVYYCARGGLYGSGSYLSDFDLWGRGTLVTVSS
VL: B4 VL
notes: also called 379 IgG1 format
For B5, the equilibrium dissociation constant (Kd) in assay [1] turned out to be 550 pM; in assay [3] it was 1620 pM. In assay [5], the binding result was “no binding (tested: 100 nM antigen)”.

B6: 930 (antibody, V domains shown)
VH: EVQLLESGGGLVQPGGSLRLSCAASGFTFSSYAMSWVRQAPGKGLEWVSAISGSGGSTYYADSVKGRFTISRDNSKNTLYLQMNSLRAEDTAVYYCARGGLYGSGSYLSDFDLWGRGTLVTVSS
VL: B4 VL
notes: also called parental antibody 930; Lineage 3 parent
Regarding B6, in assay [6], the binding result is reported as “no binding”.

B7: 373.C (antibody, V domains shown)
VH: B5 VH with S30H, S50A, T54S, G56M, S57N
VL: B4 VL
As for B7, the equilibrium dissociation constant (Kd) in assay [1] is 621 pM; in assay [3], 914 pM. In addition, in assay [5], the binding result was “no binding (tested: 100 nM antigen)”.

B8: 374.C (antibody, V domains shown)
VH: B5 VH with R31Y, Y32N
VL: B4 VL
Regarding B8, the results for the Kd in assay [1] and in assay [3] were 358 pM and 103 pM, respectively. The binding result in assay [5] is given as “no binding (tested: 100 nM antigen)”.

B9: 377 (antibody, V domains shown)
VH: B5 VH with S30K, R31S, S50A, T54S, G56S, S57Y
VL: B4 VL
notes: also called progeny antibody 377; Lineage 3 child
Turning to B9, the binding result in assay [6] is on record as “no binding”.

B10: 374 (antibody, V domains shown)
VH: B5 VH with R31Y, Y32N
VL: B4 VL
notes: also called Lineage 3 child
Consider B10, for which, in assay [6], the binding result was “no binding”.

B11: 373 (antibody, V domains shown)
VH: B5 VH with S30H, S50A, T54S, G56M, S57N
VL: B4 VL
notes: also called Lineage 3 child
Take B11: the binding result in assay [6] is “no binding”.

B12: 376.C (antibody, V domains shown)
VH: B5 VH with S30R, R31S, S50A, S52T, T54S, S57L
VL: B4 VL
notes: also called 376 IgG1 format
For B12, in assay [1], the dissociation constant Kd stood at 301 pM. Moreover, in assay [5], the binding result is listed as “no binding (tested: 100 nM antigen)”.

B13: 379 (antibody, V domains shown)
VH: B5 VH
VL: B4 VL
notes: also called progeny antibody 379; Lineage 3 child
With B13, in assay [6], the binding result was “no binding”.

B14: 376 (antibody, V domains shown)
VH: B5 VH with S30R, R31S, S50A, S52T, T54S, S57L
VL: B4 VL
notes: also called progeny antibody 376; Lineage 3 child
For the molecule B14, in assay [6], the binding result is reported as “no binding”.

B15: 377.C (antibody, V domains shown)
VH: B5 VH with S30K, R31S, S50A, T54S, G56S, S57Y
VL: B4 VL
notes: also called 377 IgG1 format
As to B15, the Kd was found to be 572 pM in assay [1] and 1420 pM in assay [3]. In addition, the binding result in assay [5] was “no binding (tested: 100 nM antigen)”.
